Measured values published in US10266547B2, “Thieno[2,3-e]indole derivatives as new antitumor agents” (NERVIANO MEDICAL SCIENCES S.R.L., priority 2013, dated 2019).

Target: cathepsin B (Homo sapiens, UniProt P07858)
Assay: Release of a drug moiety from a conjugate in presence of cathepsin
Type: in vitro ADME
Details: 0.2 units cathepsin B, sodium acetate buffer pH 5.5, 1 mM Cys, 2 hours at 40° C., HPLC ESI-MS
Protocol: As an example, that is not intended to limit the scope of the invention, the release of a compound of formula (II) from the conjugate was performed in presence of cathepsin as reported below.
The conjugate A1 was incubated with 0.2 units of cathepsin B in sodium acetate buffer pH 5.5 and 1 mM Cys for 2 hours at 40° C.

## Cc1cc2c(OC(=O)N(C)CCN(C)C(=O)OCc3ccc(NC(=O)[C@H](CCCNC(N)=O)NC(=O)[C@@H](NC(=O)CCCCCN4C(=O)CC(SC[C@H](N)C(=O)O)C4=O)C(C)C)cc3)cc3c(c2s1)[C@H](CCl)CN3C(=O)c1cc2cc(OCCN3CCCC3)ccc2[nH]1 (stereo partly shown) [A1]
  release of the compound of formula (II) from the conjugate (breaking of the Z peptidic linker): Disappearance of the conjugate A1 and release of the corresponding compound of formula (II)
